Results reported in publication PMC9455977, “Deciphering the Regulatory Circuits of RA3 Replication Module - Mechanisms of the Copy Number Control”.

Tested on: RepA D76V (plasmid RA3 (IncU, isolated from Aeromonas hydrophila))
Test: EMSA
Settings: 25 mM Tris-HCl pH 8.0, 5 mM MgCl2, 40 mM NaCl, 0.5 mg/mL BSA, 30 min at 37 C, 20 uL; 30 ng PCR fragment (0.8% agarose) or 150 ng ds oligo (10% native PAGE) …

repAp 256 bp PCR fragment
binding signal (fold lower affinity than WT RepA): 5
